Some results are limits rather than exact numbers.

In the Immune Epitope Database (IEDB) one finds Kd and IC50 data, which are given here for nine sequences.

In test [1] the target is HLA-A*03:01. The experiment in a line: IEDB peptide-MHC binding, purified MHC/direct/fluorescence; filed as Kd, often an IC50 or EC50 that approximates it; ≥ and ≤ were set here for values at or beyond the usual limits of such assays.
For test [2], the target named is HLA-A*31:01. The experiment in a line: IEDB peptide-MHC binding, purified MHC/competitive/fluorescence; filed as Kd, often an IC50 or EC50 that approximates it; ≥ and ≤ were set here for values at or beyond the usual limits of such assays. The following applies: source organism: Giardia lamblia ATCC 50803.
Test [3] deals with HLA-A*32:07. Described as above. As to conditions: source organism: Giardia lamblia ATCC 50803.
The target of test [4] is HLA-B*15:42. The description is as above. As to conditions: source organism: Giardia lamblia ATCC 50803.
Test [5] has as its target HLA-B*45:06. The test is described as above. The following applies: source organism: Giardia lamblia ATCC 50803.
Test [6] addresses HLA-B*83:01. The description is as above. As to conditions: source organism: Giardia lamblia ATCC 50803.
For test [7], the target named is HLA-A*01:01. In words: IEDB peptide-MHC binding, purified MHC/direct/fluorescence; filed as Kd, often an IC50 or EC50 that approximates it; ≥ and ≤ were set here for values at or beyond the usual limits of such assays.
Test [8] has as its target HLA-A*02:01. The test is described as above.
In test [9] the target is HLA-A*11:01. The test is described as above.
For test [10], the target named is HLA-A*26:01. Described as above.
The target of test [11] is HLA-A*31:01. The test is described as above.
Test [12] addresses HLA-A*69:01. The description is as above.
Test [13] has as its target HLA-B*07:02. Described as above.
For test [14], the target named is HLA-B*08:01. The test is described as above.
Test [15] addresses HLA-B*15:01. The test is described as above.
Test [16] has as its target HLA-B*27:05. Described as above.
The target in test [17] is HLA-B*35:01. The description is as above.
Test [18] concerns the target HLA-B*40:01. The test is described as above.
For test [19], the target named is HLA-B*44:02. The test is described as above. The following applies: source organism: Escherichia coli O157:H7.
For test [20], the target named is HLA-B*58:01. The description is as above.
Test [21] has as its target HLA-A*24:03. Described as above.
Test [22] deals with HLA-A*24:02. The experiment in a line: IEDB peptide-MHC binding, purified MHC/competitive/fluorescence; ≥ and ≤ were set here for values at or beyond the usual limits of such assays. The following applies: source organism: Variola virus.
Test [23] has as its target HLA-B*07:02. The description is as above. The following applies: source organism: Variola virus.
For test [24], the target named is HLA-B*08:01. The description is as above.
Test [25] concerns the target HLA-A*23:01. The experiment in a line: IEDB peptide-MHC binding, purified MHC/direct/fluorescence; filed as Kd, often an IC50 or EC50 that approximates it; ≥ and ≤ were set here for values at or beyond the usual limits of such assays. The following applies: source organism: Campylobacter jejuni.
In test [26] the target is HLA-A*24:02. The description is as above. The following applies: source organism: Campylobacter jejuni.
In test [27] the target is HLA-A*26:03. Described as above. The following applies: source organism: Campylobacter jejuni subsp. jejuni CG8486.
Test [28] concerns the target HLA-A*68:02. Described as above. As to conditions: source organism: Campylobacter jejuni.
Test [29] has as its target HLA-B*15:09. Described as above. As to conditions: source organism: Campylobacter jejuni subsp. jejuni CG8486.
Test [30] concerns the target HLA-B*15:17. Described as above. The following applies: source organism: Campylobacter jejuni.
The target in test [31] is HLA-B*18:01. The description is as above. As to conditions: source organism: Campylobacter jejuni.
Test [32] deals with HLA-B*39:01. The test is described as above. As to conditions: source organism: Campylobacter jejuni subsp. jejuni CG8486.
Test [33] concerns the target HLA-B*57:01. The description is as above. As to conditions: source organism: Campylobacter jejuni.
Test [34] deals with HLA-A*26:02. In words: IEDB peptide-MHC binding, purified MHC/competitive/fluorescence; filed as Kd, often an IC50 or EC50 that approximates it; ≥ and ≤ were set here for values at or beyond the usual limits of such assays. As to conditions: source organism: Campylobacter jejuni subsp. jejuni NCTC 11168 = ATCC 700819.
For test [35], the target named is HLA-A*11:01. The experiment in a line: IEDB peptide-MHC binding, purified MHC/competitive/fluorescence; ≥ and ≤ were set here for values at or beyond the usual limits of such assays. As to conditions: source organism: Zaire ebolavirus.
The target in test [36] is HLA-A*30:01. In words: IEDB peptide-MHC binding, purified MHC/direct/fluorescence; filed as Kd, often an IC50 or EC50 that approximates it; ≥ and ≤ were set here for values at or beyond the usual limits of such assays. The following applies: source organism: Corynebacterium glutamicum.
Setting [37] is: source organism: Escherichia coli O157:H7.
[38] abbreviates: source organism: Escherichia coli.
Where [39] appears, read: source organism: Campylobacter jejuni.
The mark [40] stands for this setting: source organism: Salmonella enterica subsp. enterica serovar Typhimurium.
The mark [41] stands for this setting: source organism: Corynebacterium glutamicum.

RLYPFGSYY: the Kd is not above 0.001 µM in [1] (source organism: Giardia lamblia ATCC 50803); 0.0313 µM in test [2]; 0.0041 µM in test [3]; not below 5 µM in test [4]; not below 5 µM in [5]; not below 5 µM in test [6].

DISPTNIPL: the dissociation constant (Kd) was not below 20 µM in [7] (setting [37]); not below 20 µM in test [8] (setting [37]); not below 20 µM in test [1] (setting [37]); not below 20 µM in test [9] (setting [37]); 6.55 µM in [10] (setting [37]); not below 20 µM in test [11] (setting [37]). In addition, the Kd in test [12] (setting [37]) is 0.0148 µM; in test [13] (setting [37]), not below 20 µM; in test [14] (setting [37]), not below 20 µM; in test [15] (setting [37]), not below 20 µM; in test [16] (setting [37]), not below 20 µM; in test [17] (setting [37]), 0.105 µM. Further, the dissociation constant Kd in test [18] (setting [37]), in test [19] and in [20] (setting [37]) was not below 20 µM each time.

As to DPRDDLSGM, the equilibrium dissociation constant (Kd) in [7] (setting [37]), in test [8] (setting [37]), in test [1] (setting [37]), in test [9] (setting [37]), in [21] (setting [38]) and in test [10] (setting [37]) was not below 20 µM each time. The Kd was not below 20 µM in [11] (setting [37]); not below 20 µM in test [12] (setting [37]); 7.81 µM in [13] (setting [38]); not below 20 µM in test [14] (setting [37]); not below 20 µM in test [15] (setting [37]); not below 20 µM in [16] (setting [37]). Moreover, the equilibrium dissociation constant (Kd) is 0.0994 µM in test [17] (setting [38]), not below 20 µM in [18] (setting [37]), not below 20 µM in test [19] and not below 20 µM in test [20] (setting [37]).

Consider TPKAQREIF, for which the results for the IC50 in [22], in test [23] and in [24] (source organism: Variola virus) were 14.1 µM, 16.1 µM and not below 142 µM, respectively.

With WFGHLASDW, the Kd in test [7] (setting [39]) was not below 20 µM; in test [8] (setting [39]), not below 20 µM; in test [1] (setting [39]) it was not below 20 µM; in test [9] (setting [39]) it was not below 20 µM; in test [25], 0.34 µM; in test [26] it was 1.6 µM. Besides, the dissociation constant (Kd) in test [21] (setting [39]) is 0.0215 µM; in test [27], not below 20 µM; in [11] (setting [39]), not below 20 µM; in [28], not below 20 µM; in [12] (setting [39]) it was not below 20 µM; in [13] (setting [39]), not below 20 µM. Further, the dissociation constant Kd in test [15] (setting [39]) is 7 µM; in [29], not below 20 µM; in test [30], not below 20 µM; in [31], not below 20 µM; in test [16] (setting [39]), not below 20 µM; in test [32] it was not below 20 µM. In addition, the values for the Kd in test [33], in test [20] (setting [39]) and in test [34] were not below 20 µM, 13 µM and not below 20 µM, respectively.

Turning to ATISYRIKL, the dissociation constant Kd in test [7] (setting [37]) was not below 20 µM; in test [8] (setting [40]) it was 0.106 µM; in test [1] (setting [37]), not below 20 µM; in test [9] (setting [40]), 0.0546 µM; in test [10] (setting [40]), 2.64 µM; in [11] (setting [37]) it was not below 20 µM. The dissociation constant Kd was 0.0558 µM in test [12] (setting [40]); not below 20 µM in test [13] (setting [37]); not below 20 µM in test [14] (setting [37]); not below 20 µM in test [15] (setting [37]); not below 20 µM in [16] (setting [37]); 0.542 µM in [17] (setting [40]). Also, the Kd in [18] (setting [37]), in test [19] and in test [20] (setting [37]) was not below 20 µM throughout.

In test [24] (source organism: Vaccinia virus Copenhagen), NIKHKERIP registered an IC50 not below 292 µM.

In the case of HRTIHHASA, the IC50 is not below 156 µM in test [35] and not below 138 µM in test [24] (source organism: Zaire ebolavirus).

As for WPALSSIAA, the Kd in test [7] (setting [41]), in test [8] (setting [41]), in [1] (setting [41]), in [9] (setting [41]), in test [21] (setting [41]) and in test [10] (setting [41]) was not below 20 µM each time. Moreover, the dissociation constant (Kd) in test [36] was 7.5 µM; in [11] (setting [41]), not below 20 µM; in [13] (setting [41]), 0.00878 µM; in test [14] (setting [41]), 1.28 µM; in test [15] (setting [41]), not below 5 µM; in test [16] (setting [41]), not below 20 µM. The figures for the Kd in test [17] (setting [41]), in [18] (setting [41]) and in [20] (setting [41]) were 0.0017 µM, not below 20 µM and not below 20 µM, respectively.
